± gives the standard deviation of the averaged measurements.
Legend:
MCF7 = assay: percentage of EdU-negative (G0-arrested) nuclei per well, 72 h; higher = more G0 arrest; details: reference: sequence is the full UniProt precursor, the tested protein was the secreted form or ectodomain
hTERT-HMEC = assay: as above; details: reference: sequence is the full UniProt precursor, the tested protein was the secreted form or ectodomain
[1] = protein concentration 0.0225 µM
[2] = protein concentration 0.0175 µM
[3] = protein concentration 0.01425 µM
[4] = protein concentration 0.1425 µM
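Note: secreted proteins added to cultured cells, EdU pulse at the end, nuclei found by Hoechst imaging, EdU status from nuclear versus surrounding ring intensity ratio, PBS as neutral control.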

## MAAEPLTELEESIETVVTTFFTFARQEGRKDSLSVNEFKELVTQQLPHLLKDVGSLDEKMKSLDVNQDSELKFNEYWRLIGELAKEIRKKKDLKIRKK
MCF7; [1]
  percentage of EdU-negative: 27.3 ± 1.9%
MCF7; protein concentration 0.225 µM
  percentage of EdU-negative: 25.4 ± 0.45%
hTERT-HMEC; [1]
  percentage of EdU-negative: 4.78 ± 0.24%
hTERT-HMEC; protein concentration 0.225 µM
  percentage of EdU-negative: 5.02 ± 0.53%

## MSAFRLWPGLLIMLGSLCHRGSPCGLSTHVEIGHRALEFLQLHNGRVNYRELLLEHQDAYQAGIVFPDCFYPSICKGGKFHDVSESTHWTPFLNASVHYIRENYPLPWEKDTEKLVAFLFGITSHMAADVSWHSLGLEQGFLRTMGAIDFHGSYSEAHSAGDFGGDVLSQFEFNFNYLARRWYVPVKDLLGIYEKLYGRKVITENVIVDCSHIQFLEMYGEMLAVSKLYPTYSTKSPFLVEQFQEYFLGGLDDMAFWSTNIYHLTSFMLENGTSDCNLPENPLFIACGGQQNHTQGSKMQKNDFHRNLTTSLTESVDRNINYTERGVFFSVNSWTPDSMSFIYKALERNIRTMFIGGSQLSQKHVSSPLASYFLSFPYARLGWAMTSADLNQDGHGDLVVGAPGYSRPGHIHIGRVYLIYGNDLGLPPVDLDLDKEAHRILEGFQPSGRFGSALAVLDFNVDGVPDLAVGAPSVGSEQLTYKGAVYVYFGSKQGGMSSSPNITISCQDIYCNLGWTLLAADVNGDSEPDLVIGSPFAPGGGKQKGIVAAFYSGPSLSDKEKLNVEAANWTVRGEEDFSWFGYSLHGVTVDNRTLLLVGSPTWKNASRLGHLLHIRDEKKSLGRVYGYFPPNGQSWFTISGDKAMGKLGTSLSSGHVLMNGTLKQVLLVGAPTYDDVSKVAFLTVTLHQGGATRMYALTSDAQPLLLSTFSGDRRFSRFGGVLHLSDLDDDGLDEIIMAAPLRIADVTSGLIGGEDGRVYVYNGKETTLGDMTGKCKSWITPCPEEKAQYVLISPEASSRFGSSLITVRSKAKNQVVIAAGRSSLGARLSGALHVYSLGSD
MCF7; [2]
  percentage of EdU-negative: 25.88 ± 0.089%
MCF7; protein concentration 0.175 µM
  percentage of EdU-negative: 31.8 ± 1.3%
hTERT-HMEC; [2]
  percentage of EdU-negative: 4.66 ± 0.8%
hTERT-HMEC; protein concentration 0.175 µM
  percentage of EdU-negative: 7.38 ± 0.61%

## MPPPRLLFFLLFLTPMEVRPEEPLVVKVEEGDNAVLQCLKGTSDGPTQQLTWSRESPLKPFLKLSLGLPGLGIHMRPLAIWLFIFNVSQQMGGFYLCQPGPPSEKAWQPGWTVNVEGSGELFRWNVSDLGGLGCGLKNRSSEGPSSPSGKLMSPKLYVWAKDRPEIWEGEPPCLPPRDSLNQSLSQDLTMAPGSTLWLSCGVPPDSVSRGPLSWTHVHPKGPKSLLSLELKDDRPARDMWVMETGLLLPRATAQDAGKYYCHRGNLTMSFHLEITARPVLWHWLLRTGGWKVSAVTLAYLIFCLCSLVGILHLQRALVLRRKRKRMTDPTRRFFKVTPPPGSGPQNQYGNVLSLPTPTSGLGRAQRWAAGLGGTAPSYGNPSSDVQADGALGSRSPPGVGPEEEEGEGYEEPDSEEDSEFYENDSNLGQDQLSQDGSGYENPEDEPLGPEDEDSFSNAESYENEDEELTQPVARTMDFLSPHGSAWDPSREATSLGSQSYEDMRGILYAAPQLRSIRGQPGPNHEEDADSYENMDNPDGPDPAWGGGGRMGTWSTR
MCF7; [3]
  percentage of EdU-negative: 25.2 ± 1.1%
MCF7; [4]
  percentage of EdU-negative: 26.2 ± 0.68%
hTERT-HMEC; [3]
  percentage of EdU-negative: 5.66 ± 0.95%
hTERT-HMEC; [4]
  percentage of EdU-negative: 8.73 ± 0.49%

## MEEAILVPCVLGLLLLPILAMLMALCVHCHRLPGSYDSTSSDSLYPRGIQFKRPHTVAPWPPAYPPVTSYPPLSQPDLLPIPRSPQPLGGSHRTPSSRRDSDGANSVASYENEGASGIRGAQAGWGVWGPSWTRLTPVSLPPEPACEDADEDEDDYHNPGYLVVLPDSTPATSTAAPSAPALSTPGIRDSAFSMESIDDYVNVPESGESAEASLDGSREYVNVSQELHPGAAKTEPAALSSQEAEEVEEEGAPDYENLQELN
MCF7; [1]
  percentage of EdU-negative: 25.6 ± 1.2%
MCF7; protein concentration 0.225 µM
  percentage of EdU-negative: 25.8 ± 2.6%
hTERT-HMEC; [1]
  percentage of EdU-negative: 5.1 ± 0.68%
hTERT-HMEC; protein concentration 0.225 µM
  percentage of EdU-negative: 5.5816 ± 0.0039%

## MPALGWAVAAILMLQTAMAEPSPGTLPRKAGVFSDLSNQELKAVHSFLWSKKELRLQPSSTTTMAKNTVFLIEMLLPKKYHVLRFLDKGERHPVREARAVIFFGDQEHPNVTEFAVGPLPGPCYMRALSPRPGYQSSWASRPISTAEYALLYHTLQEATKPLHQFFLNTTGFSFQDCHDRCLAFTDVAPRGVASGQRRSWLIIQRYVEGYFLHPTGLELLVDHGSTDAGHWAVEQVWYNGKFYGSPEELARKYADGEVDVVVLEDPLPGGKGHDSTEEPPLFSSHKPRGDFPSPIHVSGPRLVQPHGPRFRLEGNAVLYGGWSFAFRLRSSSGLQVLNVHFGGERIAYEVSVQEAVALYGGHTPAGMQTKYLDVGWGLGSVTHELAPGIDCPETATFLDTFHYYDADDPVHYPRALCLFEMPTGVPLRRHFNSNFKGGFNFYAGLKGQVLVLRTTSTVYNYDYIWDFIFYPNGVMEAKMHATGYVHATFYTPEGLRHGTRLHTHLIGNIHTHLVHYRVDLDVAGTKNSFQTLQMKLENITNPWSPRHRVVQPTLEQTQYSWERQAAFRFKRKLPKYLLFTSPQENPWGHKRTYRLQIHSMADQVLPPGWQEEQAITWARYPLAVTKYRESELCSSSIYHQNDPWHPPVVFEQFLHNNENIENEDLVAWVTVGFLHIPHSEDIPNTATPGNSVGFLLRPFNFFPEDPSLASRDTVIVWPRDNGPNYVQRWIPEDRDCSMPPPFSYNGTYRPV
MCF7; protein concentration 0.019 µM
  percentage of EdU-negative: 25 ± 4.8%
MCF7; protein concentration 0.19 µM
  percentage of EdU-negative: 29.1 ± 1.2%
hTERT-HMEC; protein concentration 0.019 µM
  percentage of EdU-negative: 5.16 ± 1.3%
hTERT-HMEC; protein concentration 0.19 µM
  percentage of EdU-negative: 11 ± 0.68%
